In paper PMC4046564, “Reconstitution of dynein transport to the microtubule plus end by kinesin” (eLife, 2014):

B2: Bik1ΔC (domain or fragment, S. cerevisiae, UniProt P11709 1-400, looked up)
chain: MDRYQRKIGCFIQIPNLGRGQLKYVGPVDTKAGMFAGVDLLANIGKNDGSFMGKKYFQTEYPQSGLFIQLQKVASLIEKASISQTSRRTTMEPLSIPKNRSIVRLTNQFSPMDDPKSPTPMRSFRITSRHSGNQQSMDQEASDHHQQQEFGYDNREDRMEVDSILSSDRKANHNTTSDWKPDNGHMNDLNSSEVTIELREAQLTIEKLQRKQLHYKRLLDDQRMVLEEVQPTFDRYEATIQEREKEIDHLKQQLELERRQQAKQKQFFDAENEQLLAVVSQLHEEIKENEERNLSHNQPTGANEDVELLKKQLEQLRNIEDQFELHKTKWAKEREQLKMHNDSLSKEYQNLSKELFLTKPQDSSSEEVASLTKKLEEANEKIKQLEQAQAQTAVESLPIF
notes: Bik1 (Clip170 homolog), S. cerevisiae, lacking the C-terminal 40 amino acids (zinc knuckle domain); also called Bik1ΔC construct lacking the C-terminal 40 amino acids; source: sf21 insect cells (baculovirus), purified (Ni-NTA)
B3: Bik1 (natural protein, S. cerevisiae, UniProt P11709 1-440, looked up)
chain: MDRYQRKIGCFIQIPNLGRGQLKYVGPVDTKAGMFAGVDLLANIGKNDGSFMGKKYFQTEYPQSGLFIQLQKVASLIEKASISQTSRRTTMEPLSIPKNRSIVRLTNQFSPMDDPKSPTPMRSFRITSRHSGNQQSMDQEASDHHQQQEFGYDNREDRMEVDSILSSDRKANHNTTSDWKPDNGHMNDLNSSEVTIELREAQLTIEKLQRKQLHYKRLLDDQRMVLEEVQPTFDRYEATIQEREKEIDHLKQQLELERRQQAKQKQFFDAENEQLLAVVSQLHEEIKENEERNLSHNQPTGANEDVELLKKQLEQLRNIEDQFELHKTKWAKEREQLKMHNDSLSKEYQNLSKELFLTKPQDSSSEEVASLTKKLEEANEKIKQLEQAQAQTAVESLPIFDPPAPVDTTAGRQQWCEHCDTMGHNTAECPHHNPDNQQFF
notes: Bik1 (Clip170 homolog), S. cerevisiae; open-reading frame amplified from genomic DNA; Eluted from Ni-NTA with imidazole; no removal of the tag is told; also called Clip170 homolog; source: sf21 insect cells (baculovirus), purified (Ni-NTA)

Experiments:
Kip2 (S. cerevisiae) = Kip2 (S. cerevisiae) (UniProt P28743)
Bik1 = target: B3; experiment: SEC; Superose 6 PC 3.2/30; indicated combinations of purified protein (100 picomoles each) pre-incubated at 1.1 μM for 10 min at 4°C; 50 mM Tris-HCl pH 8.0, 150 mM potassium acetate, 2 mM magnesium acetate, 1 mM EGTA, 5% glycerol, 1 mM DTT; fractions analysed by SDS-PAGE; conditions: both partners purified
Bik1ΔC = target: B2; experiment: as above; conditions: both partners purified
Kip2 = target: T1, Kip2 (S. cerevisiae, UniProt P28743 1-706, differently phosphorylated forms (doublet on SDS-PAGE; not treated with phosphatase); Atto647N on the SNAP tag in the TIRF assays); experiment: as above; conditions: both partners purified
T1 construct: kinesin Kip2, S. cerevisiae; genomic kip2 locus modified by homologous recombination (8HIS-ZZ-Tev-KIP2-g-FLAG-ga-SNAP); also called Kip2-Atto647; kinesin; source: S. cerevisiae (strain RPY1099, GAL1 promoter), purified (IgG sepharose via ZZ tag, TEV release; for SEC Ni-NTA then IgG sepharose); not shown: His8, N-terminal, cleaved; ZZ, N-terminal, cleaved; SNAP, C-terminal, kept
T1 sequence (looked up): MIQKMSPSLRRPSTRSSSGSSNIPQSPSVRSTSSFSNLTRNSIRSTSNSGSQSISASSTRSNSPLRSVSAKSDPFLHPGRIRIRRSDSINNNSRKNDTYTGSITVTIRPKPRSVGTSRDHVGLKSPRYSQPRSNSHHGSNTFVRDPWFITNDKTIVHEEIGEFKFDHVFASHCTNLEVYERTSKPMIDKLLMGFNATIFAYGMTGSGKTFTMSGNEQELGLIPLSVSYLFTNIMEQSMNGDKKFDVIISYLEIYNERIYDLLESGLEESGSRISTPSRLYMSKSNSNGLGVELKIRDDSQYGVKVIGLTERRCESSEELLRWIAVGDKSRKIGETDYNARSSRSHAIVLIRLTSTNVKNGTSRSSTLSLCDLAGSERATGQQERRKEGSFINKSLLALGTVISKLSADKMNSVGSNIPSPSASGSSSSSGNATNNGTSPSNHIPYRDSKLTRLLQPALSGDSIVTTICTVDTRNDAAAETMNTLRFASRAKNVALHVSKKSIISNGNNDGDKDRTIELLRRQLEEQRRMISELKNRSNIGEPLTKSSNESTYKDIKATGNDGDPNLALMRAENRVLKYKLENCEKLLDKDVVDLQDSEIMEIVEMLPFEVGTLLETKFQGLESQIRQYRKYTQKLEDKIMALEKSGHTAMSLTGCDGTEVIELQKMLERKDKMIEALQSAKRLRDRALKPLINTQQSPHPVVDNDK

## GST-dynein_(331 kDa), P36022 1-4092
Kip2 (S. cerevisiae)
  direction of dynein movements on dynamic microtubules (TIRF) with Lis1, Bik1, Bim1 and Kip2: proportion directed to the plus end; without Lis1 or Bik1 dynein moved to the minus end: 90%

B1: Bim1 (natural protein, S. cerevisiae, UniProt P40013 1-344, looked up)
chain: MSAGIGESRTELLTWLNGLLNLNYKKIEECGTGAAYCQIMDSIYGDLPMNRVKFNATAEYEFQTNYKILQSCFSRHGIEKTVYVDKLIRCKFQDNLEFLQWLKKHWIRHKDESVYDPDARRKYRPIITNNSATKPRTVSNPTTAKRSSSTGTGSAMSGGLATRHSSLGINGSRKTSVTQGQLVAIQAELTKSQETIGSLNEEIEQYKGTVSTLEIEREFYFNKLRDIEILVHTTQDLINEGVYKFNDETITGHGNGNGGALLRFVKKVESILYATAEGFEMNDGEDELNDKNLGEHGTVPNQGGYANSNGEVNGNEGSNHDVIMQNDEGEVGVSNNLIIDEETF
notes: Bim1 (EB1 homolog), S. cerevisiae; open-reading frame amplified from genomic DNA; also called EB1 homolog; source: E. coli BL-21(DE3), purified (Strep-Tactin, TEV release); not shown: His6, N-terminal, cleaved; Strep, N-terminal, cleaved
Bik1
  binding result: binds
Bik1ΔC
  binding result: binds

## B2
Kip2
  binding result: binds

## B3
Kip2
  binding result: binds
